From patent US20250296999A1

Molecular target: alpha v beta 3 integrin on human podocytes (human) (UniProt P06756)
Sequence (P06756 31-1048, chain 1 of 2): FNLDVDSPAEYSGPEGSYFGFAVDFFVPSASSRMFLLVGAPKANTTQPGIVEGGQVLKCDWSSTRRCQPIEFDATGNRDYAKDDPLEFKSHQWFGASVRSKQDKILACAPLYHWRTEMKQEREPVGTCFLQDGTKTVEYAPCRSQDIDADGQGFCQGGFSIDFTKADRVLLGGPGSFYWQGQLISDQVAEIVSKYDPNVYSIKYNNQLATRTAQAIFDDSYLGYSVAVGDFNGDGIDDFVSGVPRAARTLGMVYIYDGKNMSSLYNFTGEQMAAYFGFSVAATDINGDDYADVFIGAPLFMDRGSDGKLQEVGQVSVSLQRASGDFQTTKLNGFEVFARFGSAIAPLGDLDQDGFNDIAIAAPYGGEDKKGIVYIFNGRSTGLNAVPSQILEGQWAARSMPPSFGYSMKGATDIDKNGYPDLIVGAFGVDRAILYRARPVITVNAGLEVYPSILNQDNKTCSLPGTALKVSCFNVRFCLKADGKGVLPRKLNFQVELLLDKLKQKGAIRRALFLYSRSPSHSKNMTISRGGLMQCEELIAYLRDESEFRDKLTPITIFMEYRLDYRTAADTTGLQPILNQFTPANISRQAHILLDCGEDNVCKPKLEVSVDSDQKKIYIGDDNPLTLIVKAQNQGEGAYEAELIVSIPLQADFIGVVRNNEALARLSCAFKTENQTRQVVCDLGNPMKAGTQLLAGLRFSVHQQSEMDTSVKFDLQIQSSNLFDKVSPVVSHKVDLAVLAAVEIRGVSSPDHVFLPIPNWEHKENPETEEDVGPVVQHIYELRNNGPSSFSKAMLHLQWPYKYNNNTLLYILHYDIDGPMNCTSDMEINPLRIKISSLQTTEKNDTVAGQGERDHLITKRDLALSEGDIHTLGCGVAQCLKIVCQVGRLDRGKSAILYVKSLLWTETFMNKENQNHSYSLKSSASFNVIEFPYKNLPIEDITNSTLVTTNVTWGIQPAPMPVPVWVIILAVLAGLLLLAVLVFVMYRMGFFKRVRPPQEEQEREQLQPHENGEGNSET
Sequence (P05106 27-788, chain 2 of 2, further chain): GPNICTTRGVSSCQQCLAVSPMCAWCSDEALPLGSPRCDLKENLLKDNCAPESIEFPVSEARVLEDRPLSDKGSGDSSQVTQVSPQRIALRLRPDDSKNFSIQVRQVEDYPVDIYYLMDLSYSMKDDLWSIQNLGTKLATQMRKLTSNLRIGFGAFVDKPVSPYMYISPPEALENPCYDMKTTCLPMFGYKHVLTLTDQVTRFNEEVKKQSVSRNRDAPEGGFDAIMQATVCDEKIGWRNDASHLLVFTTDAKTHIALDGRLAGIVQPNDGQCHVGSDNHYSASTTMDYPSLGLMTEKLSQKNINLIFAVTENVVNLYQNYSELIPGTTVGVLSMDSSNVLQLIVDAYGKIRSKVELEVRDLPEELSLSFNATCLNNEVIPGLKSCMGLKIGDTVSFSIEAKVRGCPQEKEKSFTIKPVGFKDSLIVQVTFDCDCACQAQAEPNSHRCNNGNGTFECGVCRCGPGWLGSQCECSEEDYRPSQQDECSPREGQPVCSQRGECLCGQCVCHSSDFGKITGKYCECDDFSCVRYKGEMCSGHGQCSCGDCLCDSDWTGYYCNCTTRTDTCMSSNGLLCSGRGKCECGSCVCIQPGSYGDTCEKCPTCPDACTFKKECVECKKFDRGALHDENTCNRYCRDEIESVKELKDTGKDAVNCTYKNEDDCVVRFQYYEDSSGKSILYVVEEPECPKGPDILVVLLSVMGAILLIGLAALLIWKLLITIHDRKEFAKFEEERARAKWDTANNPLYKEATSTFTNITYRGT

## human D2D3 protein (C-terminal uPAR fragment, D2D3 protein with Linker) (from UniProt Q03405 100-303) (receptor)
  EC50 (read off the curve): 2 ng/mL
